The target of assay [1] is HCV E2 protein of genotype 1a expressed by vaccinia virus construct Q1a (Hepatitis C virus genotype 1a). Kind of assay: competition on GNA-captured E2; 20 µg/ml competitor against biotinylated CBH-4G.
Assay [2] deals with HCV 1b E2 deletion construct pDC-579 (Hepatitis C virus genotype 1b). The assay can be described thus: flow cytometry, transiently transfected HEK-293 cells, 10 ug/ml. (In general: In flow cytometry, cells or beads pass a laser one at a time.)
In assay [3] the target is HCV 1b E2 deletion construct pDN-470 (Hepatitis C virus genotype 1b) (UniProt Q9WMX2). The assay is described as above.
Assay [4] has as its target HCV 1b E2 deletion construct pDC-644 (Hepatitis C virus genotype 1b). The description is as above.
Assay [5] has as its target HCV 1b E2 deletion construct pDN-447 (Hepatitis C virus genotype 1b) (UniProt P29846). The description is as above.
In assay [6] the target is HCV 1b E2 construct sf1b-E2 (amino acids 384-661 in pDisplay) (influenza virus; Hepatitis C virus genotype 1b). Kind of assay: flow cytometry, CHO cells expressing sf1b-E2, 10 ug/ml.
Assay [7] has as its target HCV 1b E2 (Q1b) bound to GST-CD81-LEL (Hepatitis C virus genotype 1b; human) (UniProt P60033). Kind of assay: ELISA, 1b E2 captured by CD81-LEL; 50% of maximum binding. (In general: In an ELISA, binding on a coated surface is turned into a signal by an enzyme label.)
In assay [8] the target is HCV E2 1a protein produced in mammalian cells (Rosa et al.) (Hepatitis C virus genotype 1a). The assay can be described thus: NOB assay.
Assay [9] concerns the target HCV 1b E2 construct sf1b-E2 (amino acids 384-661 in pDisplay) (influenza virus; Hepatitis C virus genotype 1b). Kind of assay: GNA capture ELISA, HEK-293 extracts.
Assay [10] addresses HCV 1b E2 deletion construct pDN-470 (Hepatitis C virus genotype 1b) (UniProt Q9WMX2). The assay can be described thus: GNA capture ELISA, HEK-293 extracts.
For assay [11], the target named is HCV 1b E2 deletion construct pDC-644 (Hepatitis C virus genotype 1b). The assay can be described thus: GNA capture ELISA, HEK-293 extracts.
The target in assay [12] is HCV 1b E2 deletion construct pDN-447 (Hepatitis C virus genotype 1b) (UniProt P29846). Kind of assay: GNA capture ELISA, HEK-293 extracts.
Assay [13] has as its target HCV E2 1a protein produced in mammalian cells (Rosa et al.) (Hepatitis C virus genotype 1a). The assay can be described thus: NOB assay, inhibition of E2 binding to CD81 expressing Molt-4 cells, flow cytometry.
Assay [14] deals with HCV E2 protein of genotype 1a expressed by vaccinia virus construct Q1a (Hepatitis C virus genotype 1a). Kind of assay: competition ELISA; 20 µg/ml competitor against 2 µg/ml biotinylated CBH-2.
Assay [15] deals with denatured HCV 1b E2 protein (Q1b) (Hepatitis C virus genotype 1b). The assay can be described thus: GNA capture ELISA, denatured against native E2 (FIG. 9).
The target of assay [16] is HCV 1b E2 construct sf1b-E2 (amino acids 384-661 in pDisplay) (influenza virus; Hepatitis C virus genotype 1b). Kind of assay: flow cytometry, CHO cells expressing sf1b-E2.
The target in assay [17] is HCV E2 protein of genotype 1b expressed by vaccinia virus construct Q1b (Hepatitis C virus genotype 1b). The assay can be described thus: competition ELISA; 25 µg/ml competitor against 5 µg/ml biotinylated CBH-5.
Assay [18] concerns the target HCV E2 protein of genotype 1a expressed by vaccinia virus construct Q1a (Hepatitis C virus genotype 1a). Described as above.
The target in assay [19] is HCV E2 protein of genotype 1b expressed by vaccinia virus construct Q1b (Hepatitis C virus genotype 1b). The assay can be described thus: competition ELISA; 20 µg/ml competitor against 2 µg/ml biotinylated CBH-2.
Assay [20] addresses HCV E2 protein of genotype 2b expressed by vaccinia virus construct Q2b (Hepatitis C virus genotype 2b). Described as above.
Assay [21] has as its target HCV E2 protein of genotype 2a expressed by vaccinia virus construct Q2a (Hepatitis C virus genotype 2a). The assay is described as above.
Assay [22] addresses HCV E2 protein of genotype 1b expressed by vaccinia virus construct Q1b (Hepatitis C virus genotype 1b). The assay can be described thus: competition ELISA; competitor CBH-5 against biotinylated CBH-2.
Assay [23] deals with HCV E2 protein of genotype 2b expressed by vaccinia virus construct Q2b (Hepatitis C virus genotype 2b). The assay is described as above.
The target in assay [24] is HCV E2 protein of genotype 2a expressed by vaccinia virus construct Q2a (Hepatitis C virus genotype 2a). The assay is described as above.
Assay [25] deals with HCV E2 protein of genotype 1a expressed by vaccinia virus construct Q1a (Hepatitis C virus genotype 1a). The assay is described as above.
Assay [26] addresses HCV E2 protein of genotype 1b expressed by vaccinia virus construct Q1b (Hepatitis C virus genotype 1b). The assay can be described thus: competition ELISA; competitor CBH-2 against biotinylated CBH-5.
Assay [27] deals with HCV E2 protein of genotype 1a expressed by vaccinia virus construct Q1a (Hepatitis C virus genotype 1a). The assay is described as above.

With HMAb CBH-4B (antibody), in assay [1], the percent inhibition of biotinylated CBH-4G binding is less than 50%. Also, the mean fluorescence is 2 in assay [2]; 9 in assay [3]; 18 in assay [4]; 21 in assay [5]; 241 in [6]. The substance also came in with a concentration for a half-maximal effect (EC50) in [7] of 0.4 µg/mL. In [8], this substance yielded a half-maximal inhibitory concentration (IC50) of more than 25 µg/mL. For the same substance, the OD in assay [9], in assay [10], in [11] and in [12] was more than 0.5 od each time.

HMAb CBH-7 (antibody) registered a 50% inhibitory concentration (IC50) in assay [13] of 7 µg/mL. Further, the percent inhibition of biotinylated CBH-4G binding in assay [1] is less than 50%. Moreover, the mean fluorescence was 2 in assay [2]; 14 in assay [3]; 27 in [4]; 26 in [5]; 303 in [6]. This substance had a percent inhibition of biotinylated CBH-2 binding in assay [14] of 60%. Further, the OD in assay [9], in assay [10], in [11] and in assay [12] was more than 0.5 od in each case.

Regarding HMAb CBH-17 (antibody), the percent of reactivity retained with denatured E2 in [15] was 90%. The substance further registered a fold reduced staining relative to the other HMAbs in [16] of 10 fold. The substance also yielded a percent inhibition of biotinylated CBH-4G binding in assay [1] of less than 50%. For the same substance, the mean fluorescence in assay [6] is 23. Moreover, the 50% effective concentration (EC50) in assay [7] is 3 µg/mL. In assay [8], this substance had an IC50 of more than 25 µg/mL. The OD in assay [9], in [10] and in assay [12] was more than 0.5 od each time.

For the substance HMAb CBH-8E (antibody), the IC50 in [13] came to 8 µg/mL. Besides, the percent inhibition of biotinylated CBH-4G binding in assay [1] is less than 50%. Besides, the mean fluorescence in assay [6] is 408. In addition, the percent inhibition of biotinylated CBH-5 binding in assay [17] and in assay [18] was 75% each time. In addition, the percent inhibition of biotinylated CBH-2 binding in assay [19], in [20], in assay [21] and in [14] was more than 75% in each case. Besides, the OD was more than 0.5 od in [9] and 0.1 to 0.5 od in [11].

The substance HMAb CBH-5 (antibody) gave a concentration for half-maximal inhibition (IC50) in assay [13] of 2 µg/mL. The percent inhibition of biotinylated CBH-4G binding in assay [1] was less than 50%. Also, the mean fluorescence stood at 2 in assay [2]; 2 in [3]; 28 in assay [4]; 2 in [5]; 546 in [6]. Besides, the percent inhibition of biotinylated CBH-5 binding in [17] and in assay [18] was 85% in each case. The percent inhibition of biotinylated CBH-2 binding in assay [22] is 80%; in [23] it was 80%; in [24] it was 80%; in assay [25], 80%; in assay [19] it was more than 75%; in assay [20] it was more than 75%. For the same substance, the percent inhibition of biotinylated CBH-2 binding in assay [21] and in assay [14] was more than 75% each time. In addition, the OD in assay [9] and in assay [11] was more than 0.5 od throughout.

In turn, HMAb CBH-2 (antibody) gave an IC50 in assay [13] of 5 µg/mL. Moreover, the percent inhibition of biotinylated CBH-4G binding in [1] is less than 50%. In addition, the mean fluorescence in assay [6] was found to be 338. Besides, the percent inhibition of biotinylated CBH-2 binding in assay [19], in assay [20], in assay [21] and in [14] was more than 75% throughout. For the same substance, the percent inhibition of biotinylated CBH-5 binding in [26] and in assay [27] was 50% throughout. The OD is more than 0.5 od in assay [9] and 0.1 to 0.5 od in assay [11].

On to HMAb CBH-8C (antibody), for which the IC50 in assay [13] was 10 µg/mL. Besides, the percent inhibition of biotinylated CBH-4G binding in [1] is less than 50%. Further, in assay [6], the mean fluorescence came out at 282. The percent inhibition of biotinylated CBH-2 binding in assay [19], in [20], in assay [21] and in assay [14] was more than 75% throughout. The OD in [9] and in assay [11] was more than 0.5 od in each case.

By EC50 is commonly meant the concentration needed to bring the measured effect to its halfway point. Broadly, the IC50 is the concentration that gives 50% inhibition. A low value points to higher potency.
